The values below come from PMC7745063, “Investigating the reaction and substrate preference of indole-3-acetaldehyde dehydrogenase from the plant pathogen Pseudomonas syringae PtoDC3000” (Bioscience Reports, 2020).

Where a chain is given by its changes, count along the chain named. Numbers in names are those of the source.

What is called stoichiometry N is the number of molecules, sites or subunits per partner or assembly.

Data set [1] deals with the molecule itself. The data set can be described thus: crystal structure; AldA C302A with IAA and NAD+, hanging drop at 4°C, 24% PEG-1000, 100 mM Tris/HCl pH 7.0; 2.85 Å; eight monomers in the asymmetric unit.
The data set “SEC” deals with the molecule itself. As to the kind of experiment: SEC. A general note: SEC sorts molecules by how far they enter the pores of the column.

B1: AldA C302A mutant (enzyme)
chain: MTTLTRADWEQRAQNLKIEGRAFIQGEYTAAASGETFDCISPVDGRLLAKVASCDAADAQRAVESARSAFDSGAWSRLAPAKRKATMIRFAGLLEQNAEELALLETLDMGKPISDSLGVDIPGGARALSWSGEAIDKLYDEVAATPHDQLGLVTREPVGVVAAIVPWNFPLMMACWKLGPALSTGNSVVLKPSEKSPLTAIRIAQLAIEAGIPAGVLNVLPGYGHTVGKALALHMDVDTVVFTGSTKIAKQLMIYAGESNMKRVWLEAGGKSPNIVFADAPDLQAAADSAASAIAFNQGEVATAGSRLLVERSIKDRFLPMVIEALGTWKPGNPLDPATNVGALVDTQQMNTVLSYIAAGHTDGARLVAGGKQILQETGGTYVEPTIFDGVNNAMRIAQEEIFGPVLSVLTFDTAEEAIQIANDTPYGLAAAVWTANLSKAHLTARALRAGSVWVNQYDGGDMTAPFGGFKQSGNGRDKSLHAFDKYTELKSTWIKL
notes: source: E. coli BL21 (DE3), purified (Ni-NTA, Superdex-200 size-exclusion)
With B1, the “stoichiometry N” value in data set [1] amounted to 4.

B2: AldA E267A mutant (enzyme)
chain: B1 chain with E267A, A302C
notes: as for B1
On to B2, for which, in the data set “SEC”, the “stoichiometry N” value is 4.

B3: AldA E267Q mutant (enzyme)
chain: B1 chain with E267Q, A302C
notes: as for B1
Regarding B3, the “stoichiometry N” value in “SEC” is 4.

B4: AldA indole-3-acetaldehyde dehydrogenase from Pseudomonas syringae strain PtoDC3000, wild-type (enzyme)
chain: B1 chain with A302C
notes: also called wild-type AldA; WT; source: E. coli BL21 (DE3), purified (Ni-NTA, Superdex-200 size-exclusion)
On to B4, for which the “stoichiometry N” value in “SEC” came to 4.
